Where a chain is given by its changes, count along the chain named.
B1: JR340 (antibody, V domains shown)
VH: EVQLVESGGGLVQPGRSLRLSCTASGFTFHDYALQWVRQVPGKGLEWVSGISWNSASTGYADSVKGRFTISRDNAKNSLYLQMNSLRAEDTALYYCAKVRSTSCYLACGMDVWGQGTTVTVSS
VL: QSALTQPASVSGSPGQSITISCTGTSSDVGSYNLVSWYQQHPGKAPKLMISEVSKRPSGVSNRFSGSKSGNTASLTISGLQAEDEADYYCCSYALSRILFGGGTKLTVL
B2: JR150 (antibody, V domains shown)
VH: QVQLVQSGAEVKKPGASVKVSCKASRYTFASYYMHWVRQAPGQGLEWMGIINPGGGSTSYAQNFQGRVSMTSDTSTSTVYMELRSLRSEDTAVYYCARDSEFVPTAHGAFEIWGQGTMVTVSS
VL: EIVLTQSPATLSLSPGERATLSCRASQSVSSYLAWYQQKPGQAPRLLIYDASNRATGIPARFSGSGSGTDFTLTISSLEPEDFAVYYCQQRSNWLVTFGGGTKVEIK
B3: JR154 (antibody, V domains shown)
VH: EVQLVESGGGLVQPGRSLRLSCEASGFIFDDYAMHWVRQGPGKGLEWVSGITSNSGSMGYADSVKGRFTISRDNAKNSLYLQMNSLRPEDTAFYYCAKDMVSGVFLWFGELENWGQGTLVTVS
VL: QSVLTQPPSASGTPGQRVTISCYGSRSNFGTNTVNWYQQLPGMAPRLLIHSHNQRPSGVPARFSGSKSGTSASLAISGLQSEDEAHYYCASWDGGLNAVVFGGGTKLIVL
B4: JR078 (antibody, V domains shown)
VH: VQLVESGGGVVQPGRSLRLSCAASGFIFRSYGMNWVRQAPGKGLEWVAVMSYDGNDKDYADSVKGRFTISRDDSKNTLYLQMNSLRAEDTAVYYCAKSGGLYCSGGNCYSNYFDYWGRGTLVTVSS
VL: EIVLTQSPGTLSLSPGERATLSCRASQSVSSSYLAWYQQKPGQAPRLLISGASSRAAGIPDRFSGSGSGTDFTLTISRLAPEDFAVYYCQQYGYSLTFGGGTKVEIK
B5: JR204 (antibody, V domains shown)
VH: QVQLQESDPGLVTPSETLSLTCTVSGASVSSGSDYWNWIRQPPGKGLEWIGYIYYTGRTNYNPSLKSRVTISVDTSKNQFSLKLSSVTAADTAVYYCAREVIVLPAALPPFGLDVWGQGTTVTVSS
VL: SYELTQPPSVSVAPGKTARITCGGNNIGTKSVHWYQQKPGQAPVLVVYDDSDRPSGIPERFSGSNSENTATLTISRVEAGDEADYSCQVWDSSGDHVVFGGGTKLTVL
B6: JR325 (antibody, V domains shown)
VH: QVQLQESGPGLVKPSQTLSLTCTVSGGSISSSDYYWSWIRQHPGKGLEWIGFIFYSGTTYYSPALKSRVSISVDTSKSQFSLKLHSVTAADTAVYYCARFSRNLGLNWFDPWGQGTLVTVSS
VL: QFVLTQPASVSGSPGQSITISCTGTSSDIGSYDLVSWYQQYPGKAPKLIIYEVNKRPSGVSSRFSGSKSGNTASLTISGLLAEDEADYYCCSYAGPNTVLFGGGTILTV
B7: JR195 (antibody, V domains shown)
VH: EVQLVESGGGLVQPGRSLRLSCAASGFTFDDYTMHWVRQAPGKGLEWVSAISWNSDALGYADSVKGRFTISRDNAKNSLYLQMNSLRPEDTALYYCAKDIDFGGSGSFDVFHIWGHGTMVTVS
VL: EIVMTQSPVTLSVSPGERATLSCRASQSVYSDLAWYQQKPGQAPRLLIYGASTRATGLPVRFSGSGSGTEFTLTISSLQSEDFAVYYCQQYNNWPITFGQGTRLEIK
B8: JN109 (antibody, V domains shown)
VH: QVQLVESGGGVVQPGRSLRLSCAASGFTFSSYGMHWVRQAPGKGLEWVAVIWYDGSNKYYADSVKGRFTISRDNSKNTLYLQMNSLRAEDTAVYYCARVRTIFRPLDYMDVWGKGTTVTVSS
VL: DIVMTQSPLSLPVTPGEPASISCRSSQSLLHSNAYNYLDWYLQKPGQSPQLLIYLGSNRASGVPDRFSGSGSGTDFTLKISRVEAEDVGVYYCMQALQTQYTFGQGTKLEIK
B9: JN008 (antibody, V domains shown)
VH: EVQLVESGGDLIQPGGSLRLSCAASGFTVSSNYMNWVRQAPGKGLEWVSIIYSGGSTFYADSVKGRFTISRDNSKNTLYLQMNSLRVEDTATYFCARSYGDYYFDSWGQGTLVTVSS
VL: EIVLTQSPATLSLSPGERATLSCRASQSVSSYLAWYQQKPGQAPRLLIYDASNRATGIPARFSGSGSGTDFTLTISSLEPEDFAVYYCQQRSNWPPSFTFGPGTKVDIK
B10: JN105 (antibody, V domains shown)
VH: QVQLVQSGAEVKKPGASVKVSCKASGYTFTSYGISWVRQAPGQGLEWMGWISAYNGNTNYAQKLQGRVTMTTDTSTSTAYMELRSLRSDDTAVYYCARDLQRAGPWADYDFWSGYYPPSNMDVWGQGTTVTVSS
VL: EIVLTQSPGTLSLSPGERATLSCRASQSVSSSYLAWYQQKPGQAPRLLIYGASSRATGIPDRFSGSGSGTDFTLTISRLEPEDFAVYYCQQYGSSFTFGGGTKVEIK
B11: JN104 (antibody, V domains shown)
VH: QVQLQESGPGLVKPSGTLSLTCAVSGGSISSNKWWSWVRQPPGKGLEWIGEIYHSGSTNYNPSLKSRVTISVDKSKNQFSLKLSSVTAADTAVYYCAILRYGSGSSLPPDNWGQGTLVTVSS
VL: EIVMTQSPATLSVSPGERATLSCRASQIISNNLAWHQQKPGQAPRLLIYGASTRATGIPARFSGSGSGTEFTLTISSLQSEDFAVYYCQQYNNWPPLLTFGGGTKVEIK
B12: JN218 (antibody, V domains shown)
VH: EVQLVESGGGLVKPGGSLRLSCAASGFTFSSYTMNWVRQAPGKGLEWVSSISTGSSNIYYTDSVKGRFTISRDNARNSLSLQMNSLRAEDTAVYYCAREGRFIGTGYWSDFSYALDVWGQGTTVTVSS
VL: EIVLTQSPGTLSLSPGERATLSCRASQSVSSSSLAWYQQTPGQAPRLLIYGASSRATGIPDRFSGSGSGTDFTLTISRLEPEDFAVYYCQQYGSSVGAFGQGTKLEIK
B13: JN013 (antibody, V domains shown)
VH: QLQLQESGPGLVKPSETLSLTCTVSGGSISSSSYYWGWIRQPPGKGLEWIGSIYYSGSTYYNPSLKSRVTISVDTSKKQFSLKLSSVTAADTAVYYCARTYYDYIWGSLLGDFWGQGTLVTVSS
VL: QSALTQPRSVSGSPGQSVTISCTGTSSDVGGYNYVSWYQQHPGKAPKLMIYDVSKRPSGVPDRFSGSKSGNTASLTISGLQAEDEADYYCCSYAGSYWVFGGGTKLTVL
B14: JN017 (antibody, V domains shown)
VH: EVQLVESGGGLVQPGGSLRLSCAASGFTFTNHWMTWVRQAPGRGLEWVANIEGDGSDKYYVDSVKGRFTISRDNAKYSLYLHMNSLRGEDTAVYYCARHSGTYHGLDYWGQGTLVTVSS
VL: B13 VL with Q40E, G66S, C91Y, S92A, Y93F, S96T, Y97T, V99M
B15: JN115 (antibody, V domains shown)
VH: QVQLVQSGAEVRKPGASVKVSCKVSGYTLIDLSIHWVRQAPGKGLEWMGGFDPEDGETIYAQKFQGRVTMTEDTSTDTAYMELSSLRSEDTAVYYCATSSSIVISGWFDPWGQGTLVTVSS
VL: QSALTQPASVSGSPGQSITISCTGTSSDVSGYNYVSWYQQHPGKVPKLLIYDVSNRPSGVSNRFSGSKSGNTASLTISGLQAEDEADYYCSSYTSSSTLVYVFGTGTKVTVL
B16: JN117 (antibody, V domains shown)
VH: QVQLVQSGAEVKKPGASVKVSCKASGYTFTSYDINWVRQATGQGLEWMGWMNPNSGNTGYAQKFQGRVTMTRNTSISTAYMELSSLRSEDTAVYYCALGTTPWYYFDYWGQGTLVTVSS
VL: SYELTQPPSVSVSPGQTARITCSGDALPKQYAYWYQQKPGQAPVLVIYKDSERPSGIPERFSGSSSGTTVTLTISGVQAEDEADYYCQSADSSGTYVFGTGTKVTVL
B17: JN007 (antibody, V domains shown)
VH: EVQLVESGGGLIQPGGSLRLSCAASGFTVSSNYMSWVRQAPGKGLEWVSVIYTGGSTYYADSVKGRFTISRDNSNNSLYLRMNSLRAEDTAVYYCARGPYYDFRSGYSPGWFDPWGQGTLVTVSS
VL: not shown
B18: JN103 (antibody, V domains shown)
VH: EVQLVKSGGGLIQPGGSLRLSCAASGFTVSSNYMSWVRQAPGKGLEWVSVIYSGGSTYYADSVKGRFTISRDNSKNTLYLQMNSLRAEDTAVYYCARDLYSSGGTDIWGQGTMVTVSS
VL: QTVVTQEPSFSVSPGGTVTLTCGLTSGSVSTSHYPSWYQQTPGQAPRTLIDSTNIRSFGVPDRFSGSILGNKAALTITGAQADDEADYYCILYVGNGIWMFGGGTRLTVL
B19: JN110 (antibody, V domains shown)
VH: QVQLVQSGAEVKKPGSSVKVSCKASGGTFSSYAISWVRQAPGQGLEWMGGIIPIFGTANYAQKFQGRVTITADKSTSTAYMELSSLRSEDTAVYYCARDPAFYYDILTGYGGYYYYGMDVWGQGTTVTVSS
VL: DIVMTQTPLSLSVTPGQPASISCKSSQSLLHSDGKTYLYWYLQKPGQPPQLLIYEVSNRFSGVPDRFSGSGSGTDFTLKISRVEAEDVGVYYCMQSIQLPPTFGQGTKVEIK
B20: JN010 (antibody, V domains shown)
VH: EVQLVESGGDLIQPGGSLKLSCAASGVTVSSNYMTWVRQAPGKGLEWVSLIYSGGSTFYADSVKGRFTISRDNSKNTLYLLMNSLRVEDTAVYYCARDLRYYGMDVWGQGTTVTVSS
VL: QTVVTQEPSFSVFPGGTVTLTCGLSSGSVSTNNYPTWYQQTPGQPPRTLIYSTDTRSSGVPDRFFGSILGNKAALTITGTQADDESHYYCVLLVGSGANAKWVFGGGTKLTVL
B21: JN003 (antibody, V domains shown)
VH: EVQLVESGGGLVQPGGSLRLSCAASGFTFNSYWMTWIRQAPGKGLEWVANIAPDGSDTYYVDSVRGRFIISRDNAKNSLYLHMNSLRPEDTAVYYCANTPAAVGEYWGQGTLVTVSS
VL: B20 VL with T2A, F10L, F13S, L20V, I50M, D54N, S58P, P61L, F65S, T80A

target: T1, SARS-CoV-2 Wuhan-Hu-1 RBD (SARS-CoV-2, Wuhan-Hu-1 (GenBank …, UniProt P0DTC2)); experiment: BLI; conditions: both partners purified

| Binder | binding result |
| --- | --- |
| B1 | binds |
| B2 | binds |
| B3 | binds |
| B4 | binds |
| B5 | binds |
| B6 | binds |
| B7 | binds |

target: T1, SARS-CoV-2 Wuhan-Hu-1 RBD; experiment: cell-based or functional assay; conditions: not given

| Binder | neutralisation IC50, Wuhan-Hu-1 pseudovirus [ng/mL] |
| --- | --- |
| B1 | > 1000 |
| B2 | > 1000 |
| B3 | > 1000 |
| B4 | > 1000 |
| B5 | > 1000 |
| B6 | > 1000 |
| B7 | > 1000 |

target: SARS-CoV-2 Wuhan-Hu-1 NTD (SARS-CoV-2, UniProt P0DTC2 14-307); experiment: cell-based or functional assay; conditions: not given

| Binder | neutralisation IC50, WT (293TAce2) [ng/mL] |
| --- | --- |
| B8 | > 1000 |
| B9 | > 1000 |
| B10 | > 1000 |
| B11 | > 1000 |
| B12 | > 1000 |
| B13 | > 1000 |
| B14 | > 1000 |
| B15 | > 1000 |
| B16 | > 1000 |
| B17 | > 1000 |
| B18 | > 1000 |
| B19 | > 1000 |
| B20 | > 1000 |
| B21 | > 1000 |
